Substitutions are numbered along the chain they refer to.

The labels stand for the following.
T1: Recombinant mouse MMR (R&D systems) (mouse, UniProt Q61830 20-1388)
T1 construct: Antigen of the PE-ELISA and the SPR; also called mMMR; recombinant mMMR
T1 sequence: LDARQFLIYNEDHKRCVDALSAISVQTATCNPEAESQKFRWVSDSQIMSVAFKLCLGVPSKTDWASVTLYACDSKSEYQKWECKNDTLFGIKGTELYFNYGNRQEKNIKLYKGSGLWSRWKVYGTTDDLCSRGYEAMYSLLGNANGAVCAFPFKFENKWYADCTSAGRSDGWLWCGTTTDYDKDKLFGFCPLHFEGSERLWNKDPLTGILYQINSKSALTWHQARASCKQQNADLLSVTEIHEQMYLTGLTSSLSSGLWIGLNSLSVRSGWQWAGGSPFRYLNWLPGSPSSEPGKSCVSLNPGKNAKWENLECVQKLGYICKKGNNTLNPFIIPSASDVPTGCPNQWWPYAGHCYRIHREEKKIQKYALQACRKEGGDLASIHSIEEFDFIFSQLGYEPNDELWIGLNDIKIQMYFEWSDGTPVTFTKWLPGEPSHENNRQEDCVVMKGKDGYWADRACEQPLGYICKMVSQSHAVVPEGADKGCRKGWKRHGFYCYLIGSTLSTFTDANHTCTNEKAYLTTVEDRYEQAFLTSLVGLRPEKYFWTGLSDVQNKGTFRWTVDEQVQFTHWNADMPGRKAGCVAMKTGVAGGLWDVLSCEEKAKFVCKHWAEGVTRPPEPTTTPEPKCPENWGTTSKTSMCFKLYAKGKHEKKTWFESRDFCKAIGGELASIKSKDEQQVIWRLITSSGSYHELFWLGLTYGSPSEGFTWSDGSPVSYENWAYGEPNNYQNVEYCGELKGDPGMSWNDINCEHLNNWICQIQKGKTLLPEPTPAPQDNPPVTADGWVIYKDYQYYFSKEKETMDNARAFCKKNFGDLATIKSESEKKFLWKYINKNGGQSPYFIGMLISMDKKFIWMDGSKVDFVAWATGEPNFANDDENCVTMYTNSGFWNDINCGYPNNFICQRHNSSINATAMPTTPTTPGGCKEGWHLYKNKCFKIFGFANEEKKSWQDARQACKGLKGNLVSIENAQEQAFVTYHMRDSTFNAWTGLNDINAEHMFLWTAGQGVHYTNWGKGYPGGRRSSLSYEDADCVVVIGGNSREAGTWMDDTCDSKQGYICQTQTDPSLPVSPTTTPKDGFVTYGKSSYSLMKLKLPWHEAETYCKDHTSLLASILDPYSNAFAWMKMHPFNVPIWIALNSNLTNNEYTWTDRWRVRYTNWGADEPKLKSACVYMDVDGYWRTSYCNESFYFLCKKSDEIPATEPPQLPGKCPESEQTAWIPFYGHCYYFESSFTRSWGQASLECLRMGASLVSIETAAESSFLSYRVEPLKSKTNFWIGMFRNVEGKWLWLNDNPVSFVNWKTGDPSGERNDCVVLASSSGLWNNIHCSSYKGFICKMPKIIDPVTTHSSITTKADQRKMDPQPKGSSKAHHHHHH

T2: Recombinant human MMR (R&D systems) (human, UniProt P22897 19-1383)
T2 construct: Antigen of the PE-ELISA and the SPR; also called hMMR; recombinant hMMR
T2 sequence: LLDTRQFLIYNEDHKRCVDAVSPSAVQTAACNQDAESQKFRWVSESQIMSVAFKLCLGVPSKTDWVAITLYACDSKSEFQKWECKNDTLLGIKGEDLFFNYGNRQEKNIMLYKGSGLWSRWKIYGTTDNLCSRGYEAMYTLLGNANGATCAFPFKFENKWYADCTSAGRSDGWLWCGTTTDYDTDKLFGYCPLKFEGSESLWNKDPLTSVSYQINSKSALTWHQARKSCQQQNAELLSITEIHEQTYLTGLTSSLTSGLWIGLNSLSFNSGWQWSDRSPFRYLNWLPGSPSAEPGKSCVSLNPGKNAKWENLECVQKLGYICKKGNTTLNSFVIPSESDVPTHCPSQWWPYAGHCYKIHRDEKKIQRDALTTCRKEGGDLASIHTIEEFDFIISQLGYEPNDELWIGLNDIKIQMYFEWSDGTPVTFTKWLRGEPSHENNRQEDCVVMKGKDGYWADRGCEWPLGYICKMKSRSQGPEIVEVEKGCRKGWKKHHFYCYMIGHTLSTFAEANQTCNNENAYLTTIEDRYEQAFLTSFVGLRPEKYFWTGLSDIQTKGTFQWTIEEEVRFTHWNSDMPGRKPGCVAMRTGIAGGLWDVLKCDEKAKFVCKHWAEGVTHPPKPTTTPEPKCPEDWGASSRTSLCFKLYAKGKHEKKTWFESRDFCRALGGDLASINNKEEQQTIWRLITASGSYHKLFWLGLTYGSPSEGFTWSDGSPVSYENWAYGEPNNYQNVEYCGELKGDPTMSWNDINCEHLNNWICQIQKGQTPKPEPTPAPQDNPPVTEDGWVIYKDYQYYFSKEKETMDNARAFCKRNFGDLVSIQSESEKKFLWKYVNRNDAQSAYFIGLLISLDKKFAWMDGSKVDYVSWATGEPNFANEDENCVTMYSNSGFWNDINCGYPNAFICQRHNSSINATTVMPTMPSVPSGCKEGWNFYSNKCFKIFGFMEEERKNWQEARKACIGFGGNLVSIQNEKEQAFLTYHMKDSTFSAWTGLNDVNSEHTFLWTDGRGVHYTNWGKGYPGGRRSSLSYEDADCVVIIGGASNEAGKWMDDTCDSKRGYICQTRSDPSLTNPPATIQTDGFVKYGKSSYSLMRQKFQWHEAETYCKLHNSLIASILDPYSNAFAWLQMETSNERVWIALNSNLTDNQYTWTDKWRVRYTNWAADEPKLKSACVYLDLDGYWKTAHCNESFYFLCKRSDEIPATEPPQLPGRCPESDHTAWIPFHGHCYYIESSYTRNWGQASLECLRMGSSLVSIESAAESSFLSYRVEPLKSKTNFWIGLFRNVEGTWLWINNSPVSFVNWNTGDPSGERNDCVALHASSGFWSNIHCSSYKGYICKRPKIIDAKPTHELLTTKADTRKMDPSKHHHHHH

B1: NbhmMMRm22.84 (VHH)
VHH: QVQLQESGGGLVQPGGSLRLSCAASGRTFSNYVNYAMGWFRQFPGKEREFVASISWSSVTTYYADSVKGRFTISRDNAKNTVYLQMNSLKPEDTAVYYCAAHLAQYSDYAYRDPHQFGAWGQGTQVTVSS
notes: Produced from pMECS with C-terminal HA and 6xHis tag
B2: NbhmMMRm24.31 (VHH)
VHH: QVQLQESGGGLVQPGGSLRLSCTATGFTLKNHHIGWLRQAPGKEREGVASINSSGGSTNYADSVQGRFTISRDNAKNTVFLQMNSLKSEDTAVYYCARLRRYYGLNLDPGSYDYWGQGTQVTVSS
notes: as for B1
B3: NbhmMMRm26.70 (VHH)
VHH: QVQLQESGGGLVQPGGSLRLSCTASGFPFSSAPMSWVRQAPGKELEWVSYIGYTGTITDYANSVKGRFTISRDNAKNRLYLQMNSLKPEDTAVYFCAQGYARLIADSDLVRGQGTQVTVSS
notes: as for B1
B4: NbhMMRm23.30 (VHH)
VHH: QVQLQESGGGLVQAGDSLSISCAASGDTFNHYSWGWFRQAPGKAREFVAAISWNGGSKYADSVKGRFAISRDIAKNTVSLQMNSLEPEDTAVYYCAADRRPYNDWWDDWSWWVYWGQGTQVTVSS
notes: as for B1
B5: NbhMMRm15.43 (VHH)
VHH: QVQLQESGGTLVQPGGSLRLSCAASGSTFSINNMGWYRQAPGKQRELVAGITGGNTHYADSVKGRFTISRDNAKNTMYLQMNGLKPEDTAVYYCNANWGAYWGQGTQVTVSS
notes: as for B1
B6: NbhmMMRm15.49 (VHH)
VHH: B5 VHH with T10G, P14A, G83S
notes: as for B1
B7: NbhMMRm3.1 (VHH)
VHH: QVQLQESGGGLVQPGGSLRLSCAASGFTLDYYAIGWFRQAPGKEREGISCISYKGGSTTYADSVKGRFTISKDNAKNTAYLQMNNLKPEDTGIYYCAAGFVCYNYDYWGPGTQVTVSS
notes: Produced from pMECS with C-terminal HA and 6xHis tag; also called NbhmMMRm3.1
B8: NbhMMRm5.38 (VHH)
VHH: QVQLQESGGGLVQAGGSLRLSCAASGFTDDDYDIGWFRQAPGKEREGVSCISSSDGSTYYADSVKGRFTISSDNAKNTVYLQMNSLKPEDTAVYYCAADFFRWDSGSYYVRGCRHATYDYWGQGTQVTVSS
notes: Produced from pMECS with C-terminal HA and 6xHis tag; also called NbhmMMRm5.38; Nb5.38
B9: NbhmMMRm6.71 (VHH)
VHH: QVQLQESGGGLVQAGGSLRLSCAASGGTFDDSVIGWFRQAPGKEREGVSCISSNDGTTHYASPVKGRFTISSDNAKNTVYLQMNSLKPEDTAVYYCAAETPSIGSPCTSASYDYWGQGTQVTVSS
notes: as for B1
B10: NbhmMMRm21.22 (VHH)
VHH: QVQLQESGGGLVQAGGSLRLSCAASGRTFSSAAMGWFRQAPGKEREPVALINLDDGETYYADIAKGRFTLSKDNAKNSVYLQMNSLKPEDTAVYYCAVRGRFDDNYEYWGQGTQVTVSS
notes: Produced from pMECS with C-terminal HA and 6xHis tag; also called NbhMMRm21.22
B11: NbhmMMRm17.72 (VHH)
VHH: QVQLQESGGGLVQPGGSLRLSCAASGSIVSINAMGWYRQAPGKQRELVALVTGSGRTNLADSVKGRFTISRDNAKNTVYLQMNSLKPEDTAVYYCNVLVIGPLEGYDYWGQGTQVTVSS
notes: as for B1

The first assay concerns the target T1, Recombinant mouse MMR (R&D systems). The experiment in a line: SPR, BIAcore T100; mouse MMR on CM5 chip, sdAb as analyte. How it is done:
(§1) Affinity analysis was performed using a BIAcore™ T100 (GE Healthcare) with HEPES-buffered saline running buffer (10 mM HEPES with 0.15 M NaCl, 3.4 mM EDTA and 0.005% surfactant P20 at pH 7.4). MRR was immobilized on a CM5 chip in acetate buffer 50 mM (pH 5.0), resulting in 2100 RU MMR coated on the chip. A second channel on the same chip was activated/deactivated in a similar way and served as a negative control. The MMR sdAbs were used as analytes in eleven different concentrations, ranging from 1 to 2000 nM, at a flow rate of […]. Glycine-HCl 50 mM (pH 2.0) was used for elution. The kinetic and equilibrium parameters (kd, ka and KD) values were calculated from the combined sensogram of all concentrations using BIAcore™ T100 evaluation software 2.02 (GE Healthcare).
(§2) The binding characteristics and affinity of selected Nbs towards the recombinant hMMR and recombinant mMMR antigen was examined in further detail using surface plasmon resonance. A combined sensogram was recorded for each Nb (example for NbhmMMRm3.49 in FIG. 5) and the kinetic and equilibrium parameters (kd, ka and KD) values were calculated (Table 4 and Table 5). Most but not all results on binding to mouse or human rMMR obtained via this SPR analysis are in agreement with the results obtained by PE-ELISA.
One may read the Kd as the concentration at which binding is half-saturated. For orientation: koff means the first-order rate constant of dissociation. As usually defined, the kon is the rate constant with which the complex forms. B1: the Kd was 130 nM, the koff came to 0.004 s⁻¹ and the kon came to 30000 M⁻¹ s⁻¹.

For B2, the equilibrium dissociation constant (Kd) worked out at 74 nM, the koff was 0.0021 s⁻¹ and the kon worked out at 28000 M⁻¹ s⁻¹.

As to B3, the Kd was 1.9 nM, the dissociation rate constant (koff) amounted to 0.0013 s⁻¹ and the kon was found to be 690000 M⁻¹ s⁻¹.

Consider B4, for which the binding result is “no binding (tested: analyte 1 to 2000 nM)”.

On to B5, for which the Kd amounted to 44 nM, the off-rate (koff) came out at 0.0013 s⁻¹ and the kon came to 29000 M⁻¹ s⁻¹.

B6: the Kd is 44 nM, the koff is 0.0013 s⁻¹ and the kon stood at 29000 M⁻¹ s⁻¹.

As to B7, the Kd was 19 nM, the koff was determined as 0.004 s⁻¹ and the association rate constant (kon) came out at 210000 M⁻¹ s⁻¹.

As for B8, the dissociation constant Kd was determined as 25 nM, the dissociation rate constant (koff) came to 0.0033 s⁻¹ and the kon came to 130000 M⁻¹ s⁻¹.

The next assay has as its target T2, Recombinant human MMR (R&D systems). The experiment in a line: SPR, BIAcore T100; human MMR on CM5 chip, sdAb as analyte. How it is done: as §1, §2
Turning to B1, the Kd was 38 nM, the koff came to 0.0019 s⁻¹ and the on-rate constant (kon) was 49000 M⁻¹ s⁻¹.

On to B9, for which the dissociation constant Kd came to 5.6 nM, the off-rate (koff) was found to be 0.0011 s⁻¹ and the kon worked out at 190000 M⁻¹ s⁻¹.

In the case of B2, the Kd came to 2.7 nM, the koff was 0.00069 s⁻¹ and the kon is 260000 M⁻¹ s⁻¹.

For B3, the equilibrium dissociation constant (Kd) stood at 13 nM, the koff came out at 0.0073 s⁻¹ and the kon stood at 580000 M⁻¹ s⁻¹.

Consider B10, for which the Kd turned out to be 3.6 nM, the dissociation rate constant (koff) was determined as 0.0012 s⁻¹ and the kon was 340000 M⁻¹ s⁻¹.

Turning to B5, the dissociation constant Kd worked out at 270 nM, the off-rate (koff) worked out at 0.0059 s⁻¹ and the on-rate (kon) amounted to 22000 M⁻¹ s⁻¹.

As for B6, the Kd was 290 nM, the dissociation rate constant (koff) amounted to 0.0061 s⁻¹ and the on-rate constant (kon) turned out to be 21000 M⁻¹ s⁻¹.

B11: the Kd worked out at 19 nM, the koff amounted to 0.0012 s⁻¹ and the on-rate (kon) turned out to be 62000 M⁻¹ s⁻¹.

In the case of B7, the Kd was 3.4 nM, the dissociation rate constant (koff) was found to be 0.00074 s⁻¹ and the on-rate (kon) worked out at 220000 M⁻¹ s⁻¹.

In the case of B8, the dissociation constant Kd was 3.3 nM, the koff was 0.00066 s⁻¹ and the on-rate (kon) was 200000 M⁻¹ s⁻¹.

Source of the values: patent publication US20150093336A1 (VIB VZW, published 2015).
